Data on one molecule can be found in PMC9258132, “Multi-omics profiling identifies a deregulated FUS-MAP1B axis in ALS/FTD–associated UBQLN2 mutants”.

One data set has as its target MBP-FUS-His6 S439A (UniProt P35637 1-526, S439A). In words: EMSA; 5 mM MgCl2, 0.1 mg/ml yeast tRNA; 5 nM RNA, 0-10 uM protein; 20 mM NaPO4 pH 8, 150 mM NaCl, 5% glycerol, 1 mM DTT, 5 mM MgCl2, 0.5 mg/ml BSA, 0.1 mg/ml yeast tRNA, 1 U/ul RNase inhibitor, 20 min RT; 6% native PAGE in 0.5x TBE. The note with it: protein: recombinant; tags: N-terminal MBP, C-terminal His6; hairpin with 3' single-stranded tail.

The next data set has as its target MBP-FUS-His6 S439E (UniProt P35637 1-526, S439E). The data set is described as above. The note with it: protein: recombinant; tags: N-terminal MBP, C-terminal His6; hairpin with 3' single-stranded tail.

Chain of MBP-FUS-His6 S439E (P35637 whole entry S439E): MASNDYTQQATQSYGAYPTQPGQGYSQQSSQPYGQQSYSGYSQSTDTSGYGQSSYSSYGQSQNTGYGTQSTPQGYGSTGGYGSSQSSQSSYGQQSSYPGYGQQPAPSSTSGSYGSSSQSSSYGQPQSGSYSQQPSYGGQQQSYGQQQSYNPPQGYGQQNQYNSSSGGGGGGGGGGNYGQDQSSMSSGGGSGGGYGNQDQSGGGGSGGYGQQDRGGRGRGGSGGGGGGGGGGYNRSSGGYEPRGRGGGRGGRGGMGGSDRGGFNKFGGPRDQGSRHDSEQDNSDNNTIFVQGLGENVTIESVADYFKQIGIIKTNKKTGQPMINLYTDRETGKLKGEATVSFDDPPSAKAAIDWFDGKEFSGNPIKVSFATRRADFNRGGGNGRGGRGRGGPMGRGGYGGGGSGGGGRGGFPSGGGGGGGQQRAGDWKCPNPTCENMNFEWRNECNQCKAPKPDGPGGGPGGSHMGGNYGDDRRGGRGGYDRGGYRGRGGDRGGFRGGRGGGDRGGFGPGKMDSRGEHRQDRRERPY
Chain of MBP-FUS-His6 S439A (P35637 whole entry S439A): as the sequence (P35637 whole entry S439E) above, with E439A counted along it

With GGAUCUUUAACUACUCAAGAUACUGAACAUGACAUGGUA (structured_RNA) [SON pre-mRNA stem loop with downstream GGU motif], the binding result with MBP-FUS-His6 S439A is listed as “binds”; with MBP-FUS-His6 S439E, “no binding”.
